This sample holds only a part of the variants without activity.

This note sets out measurements from the RNAGym collection of RNA variant scans (doi:10.1073/pnas.2313332121).

B1: TPR 5TU (parent)
chain: GGAUCUUCUCGAUCUAACAAAAAAGACAAAUCUGCCACAAAGCUUGAGAGCAUCUUCGGAUGCAGAGGCGGCAGCCUUCGGUGGCGCGAUAGCGCCAACGUUCUCAACUAUGACACGCAAAACGCGUGCUCCGUUGAAUGGAGUUUAUCAUG

The variants in the data set derive from B1. The data set can be described thus: polymerase ribozyme fitness, log enrichment relative to wild type (log ratio); higher = more active; in vitro selection for triplet polymerase activity. The essentials:
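Mutant libraries of both subunits of a heterodimeric triplet polymerase ribozyme were PCR-built, transcribed, and selected once in triplicate, with frozen incubation at −7 °C and capture of gel-excised extended constructs on streptavidin beads before RT-PCR. Illumina sequencing of input and output libraries was filtered to genotypes with ≥10 input reads and ≥1 read per output. Fitness is the logarithm of genotype enrichment over wild-type enrichment, using inverse-variance-weighted replicate averages. The logarithm is base 2.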
As to U101G G126U, the “polymerase ribozyme fitness (log ratio)” value worked out at 0.138.

Turning to C116U A142C, the “polymerase ribozyme fitness (log ratio)” value was -1.1.

Regarding A106C A115U A120C G136C, the “polymerase ribozyme fitness (log ratio)” value is -3.11.

Take A113C C118A C125U: the “polymerase ribozyme fitness (log ratio)” value is at most -4.2.

As for A115U A142C, the “polymerase ribozyme fitness (log ratio)” value was -3.39.

For the variant A137C C149U, the “polymerase ribozyme fitness (log ratio)” value is -3.9.

Consider C125G U134A G140A, for which the “polymerase ribozyme fitness (log ratio)” value was at most -4.2.

Consider G141A G143C, for which the “polymerase ribozyme fitness (log ratio)” value is -3.92.

For A113G, the “polymerase ribozyme fitness (log ratio)” value is -0.894.

As to A113C, the “polymerase ribozyme fitness (log ratio)” value was -2.35.

A113U: the “polymerase ribozyme fitness (log ratio)” value was -1.59.

With A119C U139C A142C, the “polymerase ribozyme fitness (log ratio)” value was -4.13.

Consider C118U G124U A142C, for which the “polymerase ribozyme fitness (log ratio)” value was -1.96.

As for G141A U146C, the “polymerase ribozyme fitness (log ratio)” value was determined as 0.27.

For the variant U101C U102G A106G, the “polymerase ribozyme fitness (log ratio)” value was -1.84.

Take U134A G141C: the “polymerase ribozyme fitness (log ratio)” value was -3.42.

On to C116U C118G, for which the “polymerase ribozyme fitness (log ratio)” value was found to be 0.0696.

Consider G133U U144A, for which the “polymerase ribozyme fitness (log ratio)” value was -3.29.

For the variant G140U G143A, the “polymerase ribozyme fitness (log ratio)” value was at most -4.2.

On to C118G A122G, for which the “polymerase ribozyme fitness (log ratio)” value was -0.988.

Take A113C U135A G136A: the “polymerase ribozyme fitness (log ratio)” value was -4.05.

In the case of A113U U134C, the “polymerase ribozyme fitness (log ratio)” value is -2.77.

For the variant C105U A113U, the “polymerase ribozyme fitness (log ratio)” value is -1.37.

With C125G G126A, the “polymerase ribozyme fitness (log ratio)” value is -3.42.

On to U135C G141U, for which the “polymerase ribozyme fitness (log ratio)” value was -1.69.

On to A106C A107G, for which the “polymerase ribozyme fitness (log ratio)” value is -4.18.

For the variant U139C, the “polymerase ribozyme fitness (log ratio)” value is -2.57.

Consider U139G, for which the “polymerase ribozyme fitness (log ratio)” value is -0.159.

Turning to U139A, the “polymerase ribozyme fitness (log ratio)” value is -3.57.

On to G136C U145A C149G, for which the “polymerase ribozyme fitness (log ratio)” value was at most -4.2.

As to C116U G141A U146C, the “polymerase ribozyme fitness (log ratio)” value worked out at 0.219.

With A110C G140A, the “polymerase ribozyme fitness (log ratio)” value was at most -4.2.

Take A147C U148A: the “polymerase ribozyme fitness (log ratio)” value was -3.81.

As to C129A G133C, the “polymerase ribozyme fitness (log ratio)” value was -3.55.

Turning to U104A C125A, the “polymerase ribozyme fitness (log ratio)” value was -0.813.

For C125G U145G, the “polymerase ribozyme fitness (log ratio)” value was -2.69.

In the case of G141U U146G, the “polymerase ribozyme fitness (log ratio)” value was 1.06.

For U102G C116U, the “polymerase ribozyme fitness (log ratio)” value was -2.66.

With A115G A122U G124C, the “polymerase ribozyme fitness (log ratio)” value is -1.96.

For C132G G141C, the “polymerase ribozyme fitness (log ratio)” value is -3.73.

For the variant C105G C132A, the “polymerase ribozyme fitness (log ratio)” value is -3.96.

Consider U104G A120G, for which the “polymerase ribozyme fitness (log ratio)” value was -0.0889.

Turning to U101G A137G, the “polymerase ribozyme fitness (log ratio)” value was -1.31.

In the case of C132A G143U, the “polymerase ribozyme fitness (log ratio)” value is at most -4.2.

Regarding U101G U144G, the “polymerase ribozyme fitness (log ratio)” value was -0.737.

For the variant U101G U144C, the “polymerase ribozyme fitness (log ratio)” value is -1.9.

On to A115U U134G, for which the “polymerase ribozyme fitness (log ratio)” value is -3.31.

As for A107G C125A, the “polymerase ribozyme fitness (log ratio)” value was -3.63.

Turning to C116A U148A, the “polymerase ribozyme fitness (log ratio)” value is -3.52.

Consider C105A A150C, for which the “polymerase ribozyme fitness (log ratio)” value was -3.93.

For U134G U148A, the “polymerase ribozyme fitness (log ratio)” value was -3.87.

Consider C125U U145A, for which the “polymerase ribozyme fitness (log ratio)” value is -1.23.

For U109G C116U, the “polymerase ribozyme fitness (log ratio)” value is -1.39.

Take G100C A137G G141C U148A: the “polymerase ribozyme fitness (log ratio)” value was at most -4.2.

Regarding A110G U144G, the “polymerase ribozyme fitness (log ratio)” value is -3.13.

As to C108U G117U A120G, the “polymerase ribozyme fitness (log ratio)” value is -3.18.

On to A119U G124U U146A, for which the “polymerase ribozyme fitness (log ratio)” value is -0.483.

For the variant U102A A119C G141C, the “polymerase ribozyme fitness (log ratio)” value is -2.4.

With C99U C125U U144G, the “polymerase ribozyme fitness (log ratio)” value is -0.905.

As to C108U U146A, the “polymerase ribozyme fitness (log ratio)” value was -2.84.

For the variant C103A A106G, the “polymerase ribozyme fitness (log ratio)” value was -0.927.

On to A113G C118G, for which the “polymerase ribozyme fitness (log ratio)” value is -1.86.

With U135A C149G, the “polymerase ribozyme fitness (log ratio)” value is -4.09.

In the case of G136A G141U, the “polymerase ribozyme fitness (log ratio)” value was 1.57.

In the case of G100A G136U A142U, the “polymerase ribozyme fitness (log ratio)” value was at most -4.2.

Regarding U130C A138G, the “polymerase ribozyme fitness (log ratio)” value is -3.28.

Turning to C123U A137G, the “polymerase ribozyme fitness (log ratio)” value is -0.927.

Regarding G140A U146G, the “polymerase ribozyme fitness (log ratio)” value is -3.51.

In the case of G117A A150C, the “polymerase ribozyme fitness (log ratio)” value is -3.86.

Take G100U C125G: the “polymerase ribozyme fitness (log ratio)” value was -4.05.

In the case of C123G G133U, the “polymerase ribozyme fitness (log ratio)” value is -3.68.

As for A106G U109C, the “polymerase ribozyme fitness (log ratio)” value is -3.91.

With A106G C118A, the “polymerase ribozyme fitness (log ratio)” value was -0.47.

C105A A120G C123A C132U G136C: the “polymerase ribozyme fitness (log ratio)” value is -3.32.

With G140U U145C, the “polymerase ribozyme fitness (log ratio)” value is -3.66.

With C131U U146C G152C, the “polymerase ribozyme fitness (log ratio)” value is -1.2.

For the variant G133C, the “polymerase ribozyme fitness (log ratio)” value was -1.65.

As for G133U, the “polymerase ribozyme fitness (log ratio)” value was -2.62.

With G133A, the “polymerase ribozyme fitness (log ratio)” value was -3.

As to A121U U127C G143C, the “polymerase ribozyme fitness (log ratio)” value is -4.06.

In the case of A142U U144C, the “polymerase ribozyme fitness (log ratio)” value was -3.6.

In the case of U127G, the “polymerase ribozyme fitness (log ratio)” value is -3.06.

With U127C, the “polymerase ribozyme fitness (log ratio)” value is -1.3.

For U127A, the “polymerase ribozyme fitness (log ratio)” value was -2.94.

With G100U U151A, the “polymerase ribozyme fitness (log ratio)” value was at most -4.2.

For the variant A107C A119G C125A, the “polymerase ribozyme fitness (log ratio)” value was at most -4.2.

Consider U144G U148G, for which the “polymerase ribozyme fitness (log ratio)” value was -3.38.

As for A137G U148A, the “polymerase ribozyme fitness (log ratio)” value was -3.67.

U102A C114A: the “polymerase ribozyme fitness (log ratio)” value is -4.

Regarding G136A, the “polymerase ribozyme fitness (log ratio)” value turned out to be 0.579.

Turning to G136C, the “polymerase ribozyme fitness (log ratio)” value was -2.62.

G136U: the “polymerase ribozyme fitness (log ratio)” value is -1.9.

As to A121U G141A, the “polymerase ribozyme fitness (log ratio)” value stood at 0.973.

U109A U135C: the “polymerase ribozyme fitness (log ratio)” value was -3.36.

For A120G G124A, the “polymerase ribozyme fitness (log ratio)” value was 0.00161.

Take G140C G143U: the “polymerase ribozyme fitness (log ratio)” value was -3.7.

In the case of U148G A150G, the “polymerase ribozyme fitness (log ratio)” value is -3.79.

As for U109C G117A U146A, the “polymerase ribozyme fitness (log ratio)” value is -3.86.

Consider C114G G140U, for which the “polymerase ribozyme fitness (log ratio)” value is -3.9.

With G126A U148C, the “polymerase ribozyme fitness (log ratio)” value was -2.93.

In the case of G117C A137G, the “polymerase ribozyme fitness (log ratio)” value was -0.587.

For G128U U139A A142G, the “polymerase ribozyme fitness (log ratio)” value was -4.07.

U102G G141U: the “polymerase ribozyme fitness (log ratio)” value was -1.98.

For C123U G141U, the “polymerase ribozyme fitness (log ratio)” value is -0.894.

On to U109G U151C, for which the “polymerase ribozyme fitness (log ratio)” value was -3.91.

Turning to C103A U139C, the “polymerase ribozyme fitness (log ratio)” value was -3.89.

As for A113C G128A, the “polymerase ribozyme fitness (log ratio)” value is -4.02.

Regarding C103A G141U, the “polymerase ribozyme fitness (log ratio)” value is -3.08.

On to U127A U144C, for which the “polymerase ribozyme fitness (log ratio)” value was -3.74.

Turning to A115G C129G, the “polymerase ribozyme fitness (log ratio)” value was -3.64.

With C105U G124A, the “polymerase ribozyme fitness (log ratio)” value was found to be 0.519.

U151G G152U: the “polymerase ribozyme fitness (log ratio)” value was -3.49.

Regarding A107C A147U, the “polymerase ribozyme fitness (log ratio)” value is -3.71.

As for A110U C123U A142C, the “polymerase ribozyme fitness (log ratio)” value was at most -4.2.

In the case of A113C C116A, the “polymerase ribozyme fitness (log ratio)” value is at most -4.2.

Turning to G124A G133U U135C, the “polymerase ribozyme fitness (log ratio)” value is -3.82.

With G140C U148G, the “polymerase ribozyme fitness (log ratio)” value is -4.14.

As to G133A A142G, the “polymerase ribozyme fitness (log ratio)” value was at most -4.2.

U135G A142C: the “polymerase ribozyme fitness (log ratio)” value was -2.54.

Consider A107G, for which the “polymerase ribozyme fitness (log ratio)” value is -2.92.

With A107C, the “polymerase ribozyme fitness (log ratio)” value was -3.58.

In the case of A107U, the “polymerase ribozyme fitness (log ratio)” value was -3.06.

A137C A150G: the “polymerase ribozyme fitness (log ratio)” value was -4.17.

A121U C131U U134A: the “polymerase ribozyme fitness (log ratio)” value is -2.42.

Consider A106G G141U, for which the “polymerase ribozyme fitness (log ratio)” value amounted to 2.01.
